In PMC4906023:

Biological target: His6-GyrB subunit of M. tuberculosis DNA gyrase (M. tuberculosis H37Rv) (UniProt P9WG45)
Experiment: SPR; BIAcore T200; […], association 180 s, dissociation 600 s; HBS-N

B1: MParE2 without the His6-tag (natural protein)
chain: MTRRLRVHNGVEDDLFEAFSYYADAAPDQIDRLYNLFVDAVTKRIPQAPNAFAPLFKHYRHIYLRPFRYYVAYRTTDEAIDILAVRHGMENPNAVEAEISGRTFE
- Kd: 4.75 µM
